Experiment [1] addresses T1, recombinant His6-tagged extracellular domain of human Clec4C (C-type lectin domain family 4, member C) (human, UniProt Q8WTT0 44-213).
T1 construct: Same antigen for immunisation, panning and ELISA; also called His-Clec4C(EC); pMET7-SIgK-His-Clec4C(EC)
T1 sequence: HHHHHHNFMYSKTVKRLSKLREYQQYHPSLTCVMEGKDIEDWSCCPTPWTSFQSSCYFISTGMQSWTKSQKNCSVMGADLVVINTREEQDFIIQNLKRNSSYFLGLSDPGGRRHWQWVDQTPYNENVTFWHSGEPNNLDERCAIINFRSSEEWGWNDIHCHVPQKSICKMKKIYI
Put plainly: ELISA, antigen-coated vs uncoated blocked wells. An excerpt: (§1) In total, 190 colonies from rounds 1 and 2 were randomly selected and analyzed by ELISA for the presence of antigen-specific VHH in their periplasmic extracts (ELISA using crude periplasmic extracts from TG1 cultures including soluble VHH). The antigen used for ELISA screening was the same as the one used for immunization, using uncoated blocked wells as negative control.
In general terms: An ELISA detects its analyte on a solid surface through an enzyme-linked reagent.

The target in experiment [2] is T1, recombinant His6-tagged extracellular …. Put plainly: ELISA, TG1 periplasmic extract on coated antigen.
Excerpt: as §1

B1: 1CL2 (VHH)
VHH: QVQLQESGGGLVQAGDSLRLSCAASGDTFSMYAMGWFRQAPGKEREFVAAISRSGGSTDYRDSVKGRFTISRDNDLNAGYLQMNSLKPEDTAVYYCALRLTFSTTTAYTGELQYPYWGQGTQVTVSS
notes: pMECS VHH-HA-His6; TG1 periplasmic extract
Turning to B1, in experiment [1], the ELISA ratio coated/uncoated amounted to 4.36. In experiment [2], the ELISA coated turned out to be 3.74.

B2: 1CL32 (VHH)
VHH: QVQLQESGGGLVQAGDSLRLSCAASGDTFSMYTMGWFRQAPGKEREFVAAISRSGGSTNYRDSVKGRFTISRDNDLNAGYLQMNSLKPEDTAVYYCALRLTFSTTTAYTGELQYPYWGQGTQVTVSS
notes: as for B1
Consider B2, for which the ELISA ratio coated/uncoated in experiment [1] is 9.9. Moreover, the ELISA coated in experiment [2] stood at 3.22.

B3: 2CL73 (VHH)
VHH: QVQLQESGGGLVQAGDSLRLSCAASGNTFSMYAMGWFRQAPGKEREFVAAISRSGGSTNYRDSVKGRFTISRDNDLNAGYLQMNNLKPEDTAVYYCALRLTFSTTDAYTGKLQYPYWGQGTQVTVSS
notes: as for B1
On to B3, for which the ELISA ratio coated/uncoated in experiment [1] stood at 4.93. The ELISA coated in experiment [2] is 2.43.

B4: 2CL58 (VHH)
VHH: QVQLQESGGGLVQAGDSLRLSCAASGDTFSMYAMGWFRQAPGKEREFVAAISRSGSSTNYRDSVKGRFTISRDNDLNAGYLQMNSLKPEDTAVYYCALRLTFSTTTTYTGELQYPYWGQGTQVTVSS
notes: as for B1
Turning to B4, the ELISA ratio coated/uncoated in experiment [1] came to 4.66. Moreover, the ELISA coated in experiment [2] amounted to 2.24.

B5: 2CL84 (VHH)
VHH: QVQLQESGGGSVQAGGSLRLSCAASGRTFSDYAMGWFRQAPGKEREFVATISKSGSSTDYADSAKGRFTISRDNAKKTVYLQINSLKTEDTAVYYCAARLSFDNTAFYTSAIRYSDWGQGTQVTVSS
notes: as for B1
With B5, in experiment [1], the ELISA ratio coated/uncoated came out at 18.2. For the same molecule, the ELISA coated in experiment [2] was found to be 3.86.

B6: 2CL92 (VHH)
VHH: QVQLQESGGGSVQAGDSLRLSCAASGRTFSGYAMGWFRQAPGKEREFVATISTSGSSTYYADSVKGRFTISRDNAKKSVYLQINSLKTEDAAVYYCAARLSFDNTAFYTSAIRYSYWGQGTQVTVSS
notes: as for B1
In the case of B6, the ELISA ratio coated/uncoated in experiment [1] stood at 11.4. Further, in experiment [2], the ELISA coated worked out at 3.89.

B7: 1CL48 (VHH)
VHH: QVQLQESGGGLVQPGGSLRLSCVGSGSTFRHHAMAWFRQTAGKEREFVSAINNHGTKTRYSDSVRGRFTISRDNDENMVYLQMDNLRPEDTAVYSCAAGPLVDYLETVPVVYTYWGQGTQVTVSS
notes: as for B1
As for B7, the ELISA ratio coated/uncoated in experiment [1] turned out to be 7.83. Further, the ELISA coated in experiment [2] was 3.85.

B8: 1CL21 (VHH)
VHH: QVQLQESGGGLVRPGGSLRLSCVGSGSTFRHHAMAWFRQTTGKEREFVSAINDHGTKTRYSDSVRGRFTISRDNDENMVYLQMDNLRPEDTAVYSCAAGPLVDYLETVPVVYTYWGQGTQVTVSS
notes: as for B1
Regarding B8, the ELISA ratio coated/uncoated in experiment [1] is 11.1. For the same molecule, the ELISA coated in experiment [2] worked out at 3.79.

B9: 2CL8 (VHH)
VHH: QVQLQESGGGLVQPGGSLKLSCAGSGSTFRHHALAWFRQTAEKEREFVSAINDHGTKTRYSDSVRGRFTISRDNDGNMVYLQMDNLRPEDTAVYSCAAGPLVDYLETVPVVYTYWGQGTQVTVSS
notes: as for B1
Regarding B9, in experiment [1], the ELISA ratio coated/uncoated worked out at 15.7. Besides, the ELISA coated in experiment [2] came out at 1.81.

B10: 2CL4 (VHH)
VHH: QVQLQESGGGLVQPGGSLRISCAGSGSTFRHHAMAWFRQTAGKEREFVSAINDHGTKTRYSDSVRGRFTISRDNDENMVYLQMDNLRSEDTANYTCAAGPLVDYLETVPVVYTYWGQGTQVTVSS
notes: as for B1
Turning to B10, the ELISA ratio coated/uncoated in experiment [1] turned out to be 31.3. Further, in experiment [2], the ELISA coated was found to be 2.8.

B11: 2CL21 (VHH)
VHH: QVQLQESGGGLVQAGGSLRLSCAASGRTFTGYAMGWFRQVPGLEREFVARISRSGNSTGYADSVKGRFTVSRDNAKSTMYLQMNSLKTEDTAVYYCAATTSWLPGHNANVYDYWGQGTQVTVSS
notes: as for B1
For B11, the ELISA ratio coated/uncoated in experiment [1] is 4.23. Besides, in experiment [2], the ELISA coated was 3.89.

B12: 2CL43 (VHH)
VHH: QVQLQESGGGTVQPGESLRLSCEVSTDTFSSLAMAWFRQATGKDREFVAAISWSGASTVYGDSVKGRFTMTRDHPKKMVYLQMDNLKPEDTAVYYCAGDLDGRTWHGDDLEYDYWGQGTQVTVSS
notes: as for B1
B12: in experiment [1], the ELISA ratio coated/uncoated came out at 12.1. Further, the ELISA coated in experiment [2] worked out at 2.64.

B13: 2CL89 (VHH)
VHH: QVQLQESGGGTVQPGESLRLSCEVSTDTFSSLAMAWFRQATAKDREFVAAISWSGDSTVYGDSVKGRFTMTRDHPKKMVYLQMDNLKPEDTAVYYCAGDLDGRTWHGDDLEYDYWGQGTQVTVSS
notes: as for B1
As to B13, the ELISA ratio coated/uncoated in experiment [1] was 10.7. Besides, the ELISA coated in experiment [2] was 1.31.

B14: 2CL82 (VHH)
VHH: QVQLQESGGGLVQPGGSLRLSCEVSTDTFSSLAMAWFRQATGKEREFVAAISWSGASTVYGDSVKGRFTMTRDHPKKMVYLQMDNLKPEDTAVYYCAGDLDGRTWHGDDLEYDYWGQGTQVTVSS
notes: as for B1
In the case of B14, the ELISA ratio coated/uncoated in experiment [1] was 9.74. Moreover, in experiment [2], the ELISA coated was found to be 2.68.

B15: 2CL72 (VHH)
VHH: QVQLQESGGGLVQPGGSLKLSCAASGSTFRHHAMAWFRQTPGKEREFVSAINDHGDRTKYLDSVRGRFTISRDNTDNMVYLQMSDLRPEDTAVYSCAAGPLVDYLETTPLVYTYWGQGTQVTVSS
notes: as for B1
On to B15, for which the ELISA ratio coated/uncoated in experiment [1] is 21.5. For the same molecule, the ELISA coated in experiment [2] came out at 3.63.

B16: 1CL25 (VHH)
VHH: QVQLQESGGGLVQPGGSLRLSCAASGSTFRHHAMAWFRQTPGKEREFVSAINDHGDRTKYLDSVRGRFTISRDNTDNMVYLLMSDLRPEDTAVYSCAAGPLVDYLETTPLVYTYWGQGTQVTVSS
notes: as for B1
For the molecule B16, the ELISA ratio coated/uncoated in experiment [1] stood at 5.81. The ELISA coated in experiment [2] was found to be 4.

B17: 2CL90 (VHH)
VHH: QVQLQESGGGLVQAGGSLRLSCAASGSTFRHHAMAWFRQTPGKGREFVSAINDHGDRTKYLDSVRGRFTISRDNTDNMVYLQMSDLRPEDTAVYSCAAGPLVDYLETTPLVYTYWGQGTQVTVSS
notes: as for B1
Take B17: the ELISA ratio coated/uncoated in experiment [1] was determined as 7.54. Besides, the ELISA coated in experiment [2] turned out to be 4.

B18: 2CL78 (VHH)
VHH: QVQLQESGGGVVQPGGSLKLSCAASGSTFRHHAMAWFRQTPGKEREFVSAINDHGDRTKYLDSVRGRFTISRDDTDNMVYLQMSDLRTEDTAVYTCAAGPLVDYLETTPLVYTYWGQGTQVTVSS
notes: as for B1
Regarding B18, the ELISA ratio coated/uncoated in experiment [1] is 32.7. Also, in experiment [2], the ELISA coated worked out at 3.75.

B19: 2CL88 (VHH)
VHH: QVQLQESGGGLVQPGGSLKLSCTGSGSTFRHHAMAWFRQTPGKEREFVAAINDHGDRTKYLDSVRGRFTISRDNTDNMVYLQMSDLRPEDTANYSCAAGPLVDYLETTPLVYTYWGQGTQVTVSS
notes: as for B1
In the case of B19, in experiment [1], the ELISA ratio coated/uncoated worked out at 12.2. Moreover, the ELISA coated in experiment [2] amounted to 4.

B20: 2CL41 (VHH)
VHH: QVQLQESGGGLVQAGGSLRLSCAASGSTFRHHAMAWFRQTPGKEREFVSAINDHGDRTKYLDSVRGRFTISRDNTDNMVYLQMSDLRTEDTAVYTCAAGPLVDYLETTPLVYTYWGQGTQVTVSS
notes: as for B1
In the case of B20, the ELISA ratio coated/uncoated in experiment [1] was 20.9. Also, the ELISA coated in experiment [2] is 4.

B21: 2CL95 (VHH)
VHH: QVQLQESGGGLVQPGGSLKLSCAGSGSTFKHHAMAWFRHTPGKEREFVSAINDHGDRTKYSDSVRGRFTIARDNTDNMVYLQMDDLLPEDTANYTCAAGPLVDYLETTPLVYTYWGQGTQVTVSS
notes: as for B1
Regarding B21, the ELISA ratio coated/uncoated in experiment [1] amounted to 23.2. For the same molecule, the ELISA coated in experiment [2] was determined as 4.

B22: 2CL87 (VHH)
VHH: QVQLQESGGGLVQPGGSLRLSCAGSGSTFRHHAMAWFRQTPGKEREFVSAINDHGDRTKYTDSVRGRFTISRDNTDNMVYLQMSDLRPEDTAVYSCAAGPLVDYLETTPLVYTYWGQGTQVTVSS
notes: as for B1
As for B22, the ELISA ratio coated/uncoated in experiment [1] turned out to be 11.5. The ELISA coated in experiment [2] was 1.62.

B23: 1CL54 (VHH)
VHH: QVQLQESGGGLAQAGASLRLSCAGSGNNFEHYAVAWFRQDAPGKERDFVAAIRDYGDRTRYDDSVKGRFTISRDNAKSMVYLEMNNLKPKDAAVYYCAAGPLNDYLEVTPLVYTYWGQGTQVTVSS
notes: as for B1
For B23, in experiment [1], the ELISA ratio coated/uncoated was determined as 17. For the same molecule, in experiment [2], the ELISA coated was 1.88.

B24: 2CL52 (VHH)
VHH: QVQLQESGGGLAQAGASLRLSCAGSGNNFEHYAVAWFRQEAPGKERDFVAAIRDYGDRTRYADSVKGRFTISRDNAKSMVYLEMNNLKPEDTAVYYCTAGPLNDYLEVTPLVYTYWGQGTQVTVSS
notes: as for B1
With B24, in experiment [1], the ELISA ratio coated/uncoated was 7.07. For the same molecule, the ELISA coated in experiment [2] was found to be 1.65.

B25: 1CL82 (VHH)
VHH: QVQLQESGGGSVQAGDSLRLSCVAPGREISSPAMGWFRQAPGKEREFVATINWSSGATLTADSVKGRFTIFKDVEKNTVYLQMNSLRPEDTAVYSCAAGATGVFRIARAYSYWGQGTQVTVSS
notes: as for B1
On to B25, for which the ELISA ratio coated/uncoated in experiment [1] is 6.23. For the same molecule, the ELISA coated in experiment [2] turned out to be 3.01.

The record behind these values is patent US20220119472A1 (ORIONIS BIOSCIENCES, published 2022).
